From the DeepSol protein solubility set

Experiment: soluble on expression in E. coli; label from the status in PepcDB or PDB records

Sequence	soluble on expression in E. coli
MATNKREKQLERECHEQKTSQAVCETKEELEKSWKDFQKVSNEYKEAVTACRKYVEEKSRPKRTVLDGDMGEPTEDQEDTNDHARRRRHHNHEGHHGNDMKHRENMDRKKHGTHVDHHGRVRRNGDHDPNDPNVDHTGHNHRVKRSIDDDPSDTTIDHTRHNHRRKRNQDDDPTDTTIDHTGHNHRRRRSDDHDPNDPNVDHTGHNHRRKRNHDDDPSDTTIDHTGHNHRRRRSDDHDPNDPNVDHIGHNHHRRKRNHDDDPSDTTIDHTGHNHRRRRSEDHDPNDPNVDHTGHNHRRRRDQDDDPSDTTIDHTGHNHRRRRSDDHDPNDPNVDHTGHNHKRRHVIASRSRRTVCSTAGHDQLSAMSSKFTKHCERENICLPDEDLPKGKQQDDILALQKLRAKKYSEYLTQVSKCYGKLHGQSSGNDSWAPSAQSQEQYNPVYPSLSGTPNFFSSSAQAYEAAPYYPAKSTAAKTTSKPVQKPYRRHHQRPNKAWSSGSQQFHLVTIDPSKPHEKPSVSKIAEAAPKPIFKVARGTVKTVNKRGTKGVQKMPNHRLEGNSWETNGLQNQTARGGGGGRGRGRGSGGRGRGGFNRGGRFNGAPKPSNNKDDIPYVHLPDDSPAITLNVSSENITAFHGFDSVFTTKHNFPVLIDNKIYGSCDHYYQICKVTDLTGVSSDKLNRGVRDENGKPIVETIEDAEKKSHSALAKDIIKAANISKEKVDEWRNSKGLETIQKALHAKVTQSAHLREALKESGDNILVHAFARDSIYGTGCTIPAIKKWLDDLSKAGVKHLKIPATFPLNKTTVQHCPVFAQGRNVLGVILMQLRQKISSGEIQVVDMSRIFNALRVNNAPAEPMDTSSKFGFISDTKSIGTF	not soluble
MGHHHHHHSHMLAQPEPLVWVSKWVDYSNKFGFGYQLSSRRVAVLFNDGTHMALSANRKTVHYNPTSTKHFSFSVGAVPRALQPQLGILRYFASYMEQHLMKGGDLPSVEEVEVPAPPLLLQWVKTDQALLMLFSDGTVQVNFYGDHTKLILSGWEPLLVTFVARNRSACTYLASHLRQLGCSPDLRQRLRYALRLLRDRSPA	not soluble
MGMSATMGDSASIPGVFFADFGPAPPEITPEGYHEVELNKTKWVLPQWYNSLKPLGEGAYGVVCTAEYEPTGDRVAIKKFFRPFQSTIHAKRTYRELKLLRTLQHDNVLEMIDVFTPDPDASSLNNVYFVSVLMGSDLQNIMKIQRLTDEQIQLLIYQVLRGLKYIHSAGIIHRDLKPSNIAVNERCEVKVFLSFSQLSFLILSFFKILDFGLARAQDAEMTGYVATRWYRAPEIMLNWMHYTQTVDVWSVGCILAELVSGRPLFPGDDHIDQLTKIMSVVGTPKEEFWSKIQSEEARNYIKNRSPIIRQDFVTLFPMASPYALELLEMMLILDPDRRISVSSALRHDYLREYSVPNDEPVAMDTVINSIVTIDPAEERATTLSDWRELIWNEIRLFQNSARRLSFVSCTDTEEEPMKI	not soluble
MRDQMLPSIILFDGVCNFCNYWVQFIIKRDPQATFQFASLQSEVGQELLEKHSIDRSTDSVVLIMEGQAFVCSDAVLKIVAQLDSPIRWLKWAVIFPRFLRDFIYRIVARNRYKWFGKRDECQIPTKEQRSRFLLEHHHHHH	soluble
MSSSSPNSSRSEAVNGRVVVPTGGSRRENSGPARGPAGFSATVLPCDEATKAAFAKDWKDLEQENLSSADYYFNSYAHFGIHEEMIKDSVRTGCYQRAICQNAHLFANKVVLDVGSGTGILSLFAAKAGAKHVYGIECSEIVNIARKIVKENDMEDKVTFVQGKAEEVSLPVEKVDIIISEWMGYFLLYESMLDTVLFCRDKWLKPGGMIFPDKAALYVAAIEDADYKEEKIGYWGNVYGFNFSCVRRCVMEEPIVDTVDENAVSTTSCCVLKLDLLTCTKEDLDFCAPYEITLRRKDFLHAFIAWFDVWFSHCHKPVVLSTGPHCRYTHWKQTVFYMEDVLVADVGDKVEGMIAVKKSQKNPRDLDIKISYTFNPPHAPAAIENTQFYRLR	soluble
MHIRLTLPFYIYPFHFFRGSKMVKIPKSHPRYWSLLYREKIIRGMEEGITAKAGLIAHGRGEAFDYLIGERTIPPAEEAMKVAVAKLLLANHPVISVNGNVAALVPRETVELAKVTRAKLEVNLFYRTEERVKKIAEVLKKTGAKEVLGLNPTKRIPGLESERGKVEEDGIWKADVVLVPLEDGDRTEALVRMGKFVITVDLNPLSRSARMANVTIVDNIIRAYPRMIELAKEMRDYSREELEEIVNNYDNNKILSEVLLHIRRRLEELAKEGLEHHHHHH	not soluble
MGSDKIHHHHHHMLCALKHLFQGEPQQQAVSGLISTSYTDNDGETRISLKLEPRYENAGEVITKLVELDADPQVVRVGIQSSSIASFGSLENLVNAYGTLYRYLKDNYDSPAKLKKYWGYLANDVVFIQISTDVSSALKIFETINERGVGLNPMDLLKNLLFTQVGQAQFTQLKDEWKKITRPLEKGKEKPLFDHFVMQLENFLFYYIFTKTPTRDMERSFSQWANELRAIADAAECRCHNQWQGIDS	not soluble
MSKKIRNTEVDHLFDAILTLENKEECYTFFEDVCTVNELLSISQRYEVAKMLREGKTYLDISNATGASTATISRVNRSLNYGNDGYDMVLERVLKKDE	not soluble
MKKVLILGGGIAGVAAAIAFRKRGFEVEVVSDREFLFIYPIAIWIPVGTERFRNVAFPLEKVARKHGFSLTLDTVTAINASRDSVTLEKAGQRSDFDFLVIALGSDKMKHEGIEHTLSICGAPEHSIRLKEKIDALIERGHGKIAFGFGGNPKDPSAVRGGPGFELFFNLHHKLTKLGIRDNFEMTFFAPMAQPGAKMGQKALDMMAVMFKAKNFRQRYGKKITRFEVDGVVFEDGSKLESDLTMFIPAGSGHSVFRNSDLPLSEAGFVKIDDFCRVVGVDGWYAVGDSAALEGPEWKAKQGHIAEFMADCAANNCLAEHFGHQEPMRGYQEHLNVLCVMDTGDGAGFVYRTGHSEMFIPMPVVGHWLKKAWGYYYKLSKMKYIPRIPGMLEHHHHHH	soluble
SLTRRADDGPLVLTGANAPMSATTASGQADASFFDPGLLRRFGITRVGDVTGLDIIGIPVWFAARPNSRGLSVSQGKGLFADQARLSAIMEAIEGAVAEETRRHVTAFGSIEEMRNKGVPLIPFETVGRIDPDALDLRKERAWVKGTSIRQQQEVFAPYELIGMDFRAEFPWDRQAFRMSSQGLAAGFEQDHAVLHALLELIENDASFLVDTFETRAITPQPFLLSAGMDSLLDDLIQHLSNIGLPPSFFDLTNALGVPVVMASLPRSLQAEDGPATRSAAGAACRPNTHAAAMAALLEAIQSRLTDISGARDDLSPLRYQRDLSTSGPTASRAQPLRQMPADLNFPESDLSLPPWRQLAEHLFARGIEDIHVFPLETEVSGLHVVRILASGLAPAGGGLQHISPRTLDHLLNLGGT	soluble
MGSDKIHHHHHHMMFQEQIDLLQQKGLYRSLKSVGYIDRQYIEVENKRCTNYTSNDYLGLGQIAFDKDDFERFMRKYSYHLSSSRLISGSSTAYEEIETMLAGWLGYSACTILNSGYDANLALFNIFKNTNCVVFSDQENHASIIDGIKLSGLEKVIYKHLDIADLEKRLEKYPNQNIPKIIISDSVFSTNGDVVDIGQLVSLKHKYNATLILDVSHSFGIENYSNYQGVDILTSSLSKACGAYGGVILSSNDVKDMLINHGRPLIYSSSLPIYNLYFIKRNIEKLINADDRRTKLNSLSKYFNQKLKALNVNYNSSNSPIKFIEFDDIEAAENIHQTLLKHHVFTSYLRYPTVTKPMLRISLSYFHTEQDIDRLFEILHQED	not soluble
SLHRILLVDDEKDVGKIVSRLLAGDNYEIEQVTTGKEAMKRVLEESLPDIILLDINLPDIDGMDMLRDMKDAVRGTPIVMMTAYGSIETAVRSIKMGAMDFVQKPFNHYDFKRFINGVISARNIAGNDHCGIVGSSPQMKKVFRLVDKFALSDITILLQGESGTGKELFARAIHQKSKRRSGPFVPLDCAALSETLIESELFGHEKGAFTGATERKIGKFERAHGGTLFIDEVENLSSSNQAKLLRAVEEKQIERVGGTKAIKVDVRIVAASNIPLTEIINNGVFRKDLFYRFSQMTIAIPSLRDRVKDVDVLIRHFLAAYSEEFGNAANISEEALLLLNAYPWPGNVRELENVVKSAVILADGDILAKHLPEYIRKGSEG	soluble
MQSAAVSGRLICNGRPAVDVKLKLYENEIFFDRLMEEGRTDSNGQFRVLGSKREITTIDPKLNVYHKCNYNGLCDQKFTIHIPKDYVTSGSQPSRTFDIGTLNLANNFPGQSTDCLN	not soluble
MHHHHHHSSGRENLYFQGERVFGCDLGEHLLNSGFEVPQVLQSCTAFIERYGIVDGIYRLSGVASNIQRLRHEFDSEHVPDLTKEPYVQDIHSVGSLCKLYFRELPNPLLTYQLYEKFSDAVSAATDEERLIKIHDVIQQLPPPHYRTLEFLMRHLSLLADYCSITNMHAKNLAIVWAPNLLRSKQIESACFSGTAAFMEVRIQSVVVEFILNHVDVLFSGRISMAMQE	soluble
LSPPRGLVAVRTPRGVLLHWDPPELVPKRLDGYVLEGRQGSQGWEVLDPAVAGTETELLVPGLIKDVLYEFRLVAFAGSFVSDPSNTANVSTSGL	soluble
MDISIEFGLYPTESDLTELQQYFPDTNLKKLYEVEAYHKKLETILDSEFSTERESLIAEIDELESQLTTLNQELQELGNIPNLSSEYLENYSKLTATINALKEQNEAYLKESGLSKEKSETDADLKRSTEDILLDLEVKINSKMREVNNILYPDIRKAPQINLNAHNSYSFYTPDDDGTGTKFKGMIVFDLVMLYLTNLPALAHDSLLLSNVSYQATEALLKLYDQSRSLNKQVFLVFDKASSYSPDANQLLSENTVLRLSSNGNELYGISWNKGENSDEI	not soluble
MMRCPECSTEGWRVLPLTVGAHVKEGLWSKIKGDFYFCSLESCEVVYFNEQTVFRKGELKTRVGVKEREEPKPVCYCNRVTEKMLLEAAEKFGKEKAVEITGAGKGKWCVVTNPSGRCCHWHLERLGFPV	soluble
MGSDKIHHHHHHMDNLQFTHAIARIRVLETRLLDRSKIERMIDSSSAEEALKILGETEYLNYMSNVRSPEDYEILLSEELKRLYTLLYSISPERSIIDIMALRYDYHNLKVMLKGKYLEKDLTYLLIPVGTISNDKLKQIFATEFYKELTPLMREALEKAESEYEGDKDPQKIDLILDSYAYKEILSKSEEVNEKFINDYIKMSIDLNNIRALLRAKAQNKHRKFFEAIILDGGTIDKKTLISYESETSDSIANKLSYTPYEKIIRLGLEEYSKTNNISYFEKLSENYIMDFIKKAKQVSFGVEPLIGYIIAKETEIKIIRIIMVGKLNSIAPNIIRERLRDAYV	not soluble
MSLKIIIAPAKIMKLDRDSFPVQSTPEFLKKTRILEKFLKSRTRDQLETLWHASDKVVEQSLFQLKNMDLDTNLTPAILAFSGIQYQYMAPDLFTQPALDYIQKNLRILSGFYGMLRPFDGICPYRLELNTKMVGFRDYSLYHFWDEDIANSLFKEDQVVINLASKQYMRLVKPYLNSARRMITVDFQELKNDKWKTVGVHAKMARGEMVRFMAEKQIKNPADLRDFHDFDFQFVPEVSSDDHYIFRTDFDFTRHEGHHHHHH	soluble
MGSDKIHHHHHHMTEGMNAGLAMPPAALETSGGANQVGVRAYNERLVMSLVRRHGSLSKAEIARRSGLSAQTVTVIMRVLEREKLLVRGEPVRGRVGQPSVPMRLNPDAVYSFGVKIGRRSANLVLMDFVGTIRHEVRRTYPYPMPGLLLDFIVGGISDIEGRLSVAERARIAGVGIAAPFELWSWAEETGAPSEEMDVWRETDLKADVAARIGYPVFIQNDATSACAAELVFGVGPHYPDFVYFFLGSFVGGGIVLNSSLFSGRTGTAGAVGPLPVQRRDGKTVQLLKIASIFVLENLLRDYGQDSQSLWYSPSDWVDYGEPLEIWIRDTAAALAQAIVAAASIIDFSAAVIDGGFPQWVRQRLVVAIQEAARDLDLQGVLMPEIVEGAVGHQARSVGGASLPLFSRYLLDQNVLFKELL	not soluble
